In the supplement of paper PMC10126150:
± gives the standard deviation of the averaged measurements.

Tested on: ATP
Assay: switch fluorescence ratio, 500 uM ATP over buffer (Cy3 cluster intensity, sum of 5 cycles each) (fold (ratio)); higher = stronger signal-on switching upon ATP binding; sequences stand for … in TCGTCGGCAGCGTCAGATGTGTATAAGAGACAGTTTTTTTTTTTTTTTTTTTTTTTTT…TC
Details: aptamer strand: ATP DNA aptamer (quencher-CACCTGGGGGAGTATTGCGGAGGAAGG + anchor), 100 nM annealed; ATP concentration: 500 uM
Outline: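 Five buffer/ATP imaging cycles were run on Cy3-labelled switching-strand clusters on a modified Illumina MiSeq flow-cell, with NaOH stripping and re-annealing between cycles. In each cycle, clusters annealed to 100 nM quencher-labelled ATP aptamer were imaged in selection buffer, then after 15 min with 500 uM ATP at 22 °C. Per cluster, the fluorescence ratio is summed target-cycle over summed buffer-cycle Cy3 intensity, averaged per switch-domain sequence. Only clusters within 100-1000 RFU were kept.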
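Also: ATP exposure 15 min at 22 °C before imaging.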

| Sequence | switch fluorescence ratio |
| --- | --- |
| TTATTAATT | 0.997 ± 0.028 |
| TTATTAGTTA | 0.988 ± 0.011 |
| TTATTATGCC | 1.02 ± 0.061 |
| TTATTATGTG | 0.946 ± 0.022 |
| TTATTATTCA | 1.008 ± 0.0047 |
| TTATTATTTC | 0.98 ± 0.05 |
| TTATTCAAGG | 0.99 ± 0.017 |
| TTATTCAGGA | 1.01 ± 0.029 |
| TTATTCATGT | 0.984 ± 0.011 |
| TTATTCGAGA | 1.02 ± 0.034 |
| TTATTCGGTG | 0.98 ± 0.021 |
| TTATTCGTGT | 1.01 ± 0.04 |
| TTATTCTGTT | 0.976 ± 0.047 |
| TTATTGAGTA | 1.005 ± 0.0048 |
| TTATTGCATG | 0.96 ± 0.013 |
| TTATTGCTGT | 0.989 ± 0.013 |
| TTATTGGAAA | 1.012 ± 0.0059 |
| TTATTGGGCC | 1.01 ± 0.026 |
| TTATTGGGGC | 1.01 ± 0.03 |
| TTATTGGGGT | 1.01 ± 0.013 |
| TTATTTACTA | 1.04 ± 0.011 |
| TTATTTAGCT | 1.01 ± 0.017 |
| TTATTTAGGG | 0.991 ± 0.0055 |

| Sequence | switch fluorescence ratio |
| --- | --- |
| TTATTTATGT | 1 ± 0.012 |
| TTATTTCGAA | 1.01 ± 0.012 |
| TTATTTCGTT | 0.989 ± 0.026 |
| TTATTTGGTA | 0.986 ± 0.044 |
| TTATTTGTTG | 0.971 ± 0.05 |
| TTATTTTAGC | 0.976 ± 0.019 |
| TTATTTTCAG | 0.996 ± 0.053 |
| TTATTTTTAA | 0.9809 ± 0.0038 |
| TTATTTTTCT | 1.01 ± 0.032 |
| TTATTTTTT | 1.02 ± 0.018 |
| TTCAAATATA | 1.003 ± 0.0017 |
| TTCAAATCGA | 1 ± 0.039 |
| TTCAAATGAA | 1 ± 0.016 |
| TTCAAATGGA | 0.991 ± 0.041 |
| TTCAAGGGGT | 0.994 ± 0.025 |
| TTCAAGGTGC | 1.4 ± 0.069 |
| TTCAATGAAA | 1 ± 0.054 |
| TTCAATGAGG | 0.973 ± 0.052 |
| TTCAATGGTG | 1.023 ± 0.0014 |
| TTCAATTGTT | 1.02 ± 0.017 |
| TTCACATAGC | 1.05 ± 0.1 |
| TTCACTTGGA | 1.03 ± 0.033 |
| TTCACTTGTG | 1 ± 0.018 |

| Sequence | switch fluorescence ratio |
| --- | --- |
| TTCAGAATTG | 1.0012 ± 0.00092 |
| TTCAGACAGG | 1.09 ± 0.02 |
| TTCAGATTGC | 0.987 ± 0.044 |
| TTCAGCAGAG | 1.41 ± 0.59 |
| TTCAGCGTCT | 0.975 ± 0.043 |
| TTCAGCTGTT | 1.01 ± 0.011 |
| TTCAGGCATG | 0.999 ± 0.04 |
| TTCAGGCTGT | 0.9811 ± 0.0054 |
| TTCAGGGGGA | 1.02 ± 0.023 |
| TTCAGGGTTT | 1.5 ± 0.9 |
| TTCAGGTGCC | 1.46 ± 0.04 |
| TTCAGTTTAG | 1 ± 0.031 |
| TTCAGTTTTG | 0.982 ± 0.024 |
| TTCATAGTCG | 0.98 ± 0.07 |
| TTCATCCAGC | 1.13 ± 0.07 |
| TTCATCGCTG | 1.04 ± 0.053 |
| TTCATGGAGT | 0.983 ± 0.028 |
| TTCATGGATA | 0.999 ± 0.066 |
| TTCATGGGGA | 0.985 ± 0.023 |
| TTCATGGGGT | 1.04 ± 0.033 |
| TTCATGTGAA | 1 ± 0.04 |
| TTCATTACCC | 1.028 ± 0.0082 |
| TTCATTCCGA | 1.29 ± 0.095 |

| Sequence | switch fluorescence ratio |
| --- | --- |
| TTCATTTACA | 1.04 ± 0.033 |
| TTCCAAGGGA | 1 ± 0.029 |
| TTCCAGGATT | 1.04 ± 0.089 |
| TTCCAGTCC | 1.06 ± 0.027 |
| TTCCATGGCC | 1.04 ± 0.044 |
| TTCCCAAATT | 1.19 ± 0.19 |
| TTCCCCATTG | 1.09 ± 0.023 |
| TTCCCCGGCA | 1.28 ± 0.35 |
| TTCCCGATCA | 1.01 ± 0.018 |
| TTCCCTGTTT | 1.01 ± 0.023 |
| TTCCCTTAAT | 1 ± 0.015 |
| TTCCGACCGG | 1.28 ± 0.38 |
| TTCCGATTCG | 1.09 ± 0.035 |
| TTCCGGAGGC | 1.22 ± 0.28 |
| TTCCGGGCGT | 1.12 ± 0.058 |
| TTCCGGGGAA | 1.16 ± 0.21 |
| TTCCGGTGTT | 1.05 ± 0.079 |
| TTCCGGTTGG | 1 ± 0.023 |
| TTCCTAAAGA | 1.06 ± 0.03 |
| TTCCTAAATT | 0.9979 ± 0.0034 |
| TTCCTAATGG | 1.04 ± 0.046 |
| TTCCTAATTT | 1.63 ± 0.94 |
| TTCCTCGGGT | 1.03 ± 0.014 |

| Sequence | switch fluorescence ratio |
| --- | --- |
| TTCCTGAAGG | 1.02 ± 0.041 |
| TTCCTGGCGG | 1.11 ± 0.1 |
| TTCCTTCT | 1.13 ± 0.11 |
| TTCCTTGCGT | 1.14 ± 0.043 |
| TTCCTTGGGA | 0.984 ± 0.014 |
| TTCCTTGTAG | 1.02 ± 0.017 |
| TTCGAAAGTT | 0.987 ± 0.026 |
| TTCGACATGT | 1.025 ± 0.0042 |
| TTCGAGCTAA | 1.2 ± 0.26 |
| TTCGAGTCGT | 1.006 ± 0.0034 |
| TTCGATAAGA | 0.999 ± 0.06 |
| TTCGATAATC | 1.15 ± 0.16 |
| TTCGATATGT | 0.984 ± 0.022 |
| TTCGATCCGT | 1.07 ± 0.029 |
| TTCGATTGGG | 0.95725 ± 0.00037 |
| TTCGCAGGGA | 1.074 ± 0.0042 |
| TTCGCATATT | 1.47 ± 0.26 |
| TTCGCCAGAT | 1.04 ± 0.035 |
| TTCGCGAGGT | 2.67 ± 2.3 |
| TTCGCGATGT | 1.13 ± 0.11 |
| TTCGCGTGTT | 1.003 ± 0.0055 |
| TTCGCTACGT | 1.02 ± 0.021 |
| TTCGCTAGCT | 1.03 ± 0.058 |

| Sequence | switch fluorescence ratio |
| --- | --- |
| TTCGGACGGT | 1.04 ± 0.06 |
| TTCGGAGCGG | 1.34 ± 0.24 |
| TTCGGATAAA | 1.01 ± 0.058 |
| TTCGGATATA | 0.9915 ± 0.0063 |
| TTCGGCAACG | 0.997 ± 0.035 |
| TTCGGCTCTC | 1.63 ± 0.86 |
| TTCGGCTTGG | 0.984 ± 0.035 |
| TTCGGCTTTT | 0.983 ± 0.024 |
| TTCGGGAAGC | 1.018 ± 0.0056 |
| TTCGGGCGCG | 0.952 ± 0.021 |
| TTCGGGGGGG | 1.01 ± 0.043 |
| TTCGGGGTCG | 0.985 ± 0.072 |
| TTCGGGGTTT | 1.02 ± 0.06 |
| TTCGGGTGCT | 1.08 ± 0.052 |
| TTCGGTGGGG | 0.9805 ± 0.0094 |
| TTCGGTGTTT | 1.02 ± 0.022 |
| TTCGGTTAGT | 1 ± 0.012 |
| TTCGTACCGC | 1.09 ± 0.029 |
| TTCGTACGAG | 1 ± 0.026 |
| TTCGTATAGA | 1 ± 0.041 |
| TTCGTATATA | 1.01 ± 0.018 |
| TTCGTATATC | 1.7 ± 0.93 |
| TTCGTATCAG | 1.02 ± 0.035 |

| Sequence | switch fluorescence ratio |
| --- | --- |
| TTCGTATCAT | 1.049 ± 0.0097 |
| TTCGTGAACG | 1 ± 0.071 |
| TTCGTGATTT | 1.02 ± 0.04 |
| TTCGTGCAGG | 1.02 ± 0.043 |
| TTCGTGTAAG | 1.02 ± 0.015 |
| TTCGTGTACA | 1.03 ± 0.026 |
| TTCGTGTATC | 0.999 ± 0.011 |
| TTCGTGTTGG | 0.973 ± 0.025 |
| TTCGTTAGCA | 1.54 ± 0.8 |
| TTCGTTATAG | 1.01 ± 0.044 |
| TTCGTTGTGG | 1.031 ± 0.0047 |
| TTCGTTTAGT | 1.039 ± 0.0026 |
| TTCGTTTATC | 1.07 ± 0.093 |
| TTCGTTTGAC | 1.03 ± 0.1 |
| TTCTAACTCA | 1.02 ± 0.029 |
| TTCTAAGGAG | 1.017 ± 0.0022 |
| TTCTAAGTA | 1.021 ± 0.0044 |
| TTCTAATCGG | 1.006 ± 0.01 |
| TTCTAATTTG | 0.968 ± 0.058 |
